Data from publication doi:10.1101/2021.03.29.435803.

Target: HA-FBXW7 (UniProt Q8VBV4)
Experiment: FLAG IP, HA immunoblot
Settings: reference: wild type

For “KLF2 (from UniProt Q60843) 2A C (T243A/S247A)”, the “binding against the reference” value (sites T243,S247) was “weaker”.
In the case of “KLF2 (from UniProt Q60843) 2A N (T171A/S175A)”, the “binding against the reference” value (sites T171,S175) is reported as “weaker”.
